# Experimental data reported in patent US6617118B2, “Monoclonal antibody for analysis and clearance of polyethylene glycol and polyethylene glycol-modified molecules” (priority 1999, dated 2003).
# Key:
# [1] = βG enzymatic activity of PEG-modified βG and conjugates; type: biochemical; details: purified by gel filtration, 9.2 sPEG groups/βG subunit
# [2] = 150 μg i.v., after a period of rapid clearance
# Procedure: Pharmacokinetics of βG-pPEG: Male BALB/c mice were i.v injected with 150 μg βG-pPEG. Serum was isolated from blood samples that were periodically removed from the tail vein of the mice. The concentration of βG-pPEG in serially-diluted serum samples was assayed in triplicate by the AGP3 ELISA. The concentration of βG-pPEG was determined by comparison to a standard curve generated with known concentrations of βG-pPEG.
# A sandwich ELISA was developed in which AGP3 was employed for the capture step and AGP3-biotin used for detection. […] Binding of βG-pPEG to the immobilized AGP3 was detected by sequential addition of AGP3-biotin and streptavidin-HRP. Results represent mean values of triplicate determinations. Bars indicate the standard error of the mean. […] The effect of serum on the ELISA was examined by adding 10% mouse serum to samples before assay. […] The AGP3 ELISA was employed to measure the pharmacokinetics of βG-pPEG in mice. In FIG. 7, a BALB/c mouse was i.v. injected with 150 μg βG-pPEG. Blood samples were periodically removed from the tail vein and assayed for βG-pPEG concentration by ELISA.
# immobilized AGP3 = assay: AGP3 sandwich ELISA (AGP3 capture, AGP3-biotin detection); type: binding; details: unmodified protein in PBS
# Procedure: AGP3 ELISA: Maxisorp™ 96-well microplates (Nunc™, Roskilde, Denmark) were coated with 50 μL/well of AGP3 (200 μg/ml in PBS) for 3 h at 37° C. Plates were blocked with 2% skim milk in PBS overnight and washed twice with PBS/T (0.05% Tween-20 in PBS) before serial dilutions of βG or βG-pPEG (50 μL in dilution buffer) were added to wells for 1.5 h at room temperature. Plates were washed 6 times with PBS/T and 50 μL/well AGP3-biotin (20 μg/ml in dilution buffer) was added for 1.5 h at room temperature. Plates were again washed with PBS/T and 50 μL/well streptavidin-HRP (1:1000) was added for 1 h at room temperature. Plates were washed before 100 μL/well ABTS substrate was added for 30 min at room temperature. Absorbance (405 nm) of wells was measured in a microtiter plate reader. The effect of serum on the AGP3 ELISA was examined by performing the assay in the presence of 10% serum isolated from healthy BALB/c mice.
# A sandwich ELISA was developed in which AGP3 was employed for the capture step and AGP3-biotin used for detection. In FIG. 6, serial dilutions of βG-pPEG in PBS (◯) or 10% mouse serum (□) as well as βG in PBS (Δ) were incubated in a microtiter plate coated with AGP3. Binding of βG-pPEG to the immobilized AGP3 was detected by sequential addition of AGP3-biotin and streptavidin-HRP. Results represent mean values of triplicate determinations. […]
# [3] = pH values less than 5.0 or greater than 9.0; 4 h at 37° C., assay at pH 7.0
# Procedure: To test the pH stability of βG, enzyme in βG buffer was adjusted to pH values ranging from 3-11 for 4 h at 37° C. before neutralization to pH 7.0 and assay of enzymatic activity.
molecule,measurement,setting,value
"βG-sPEG: β-glucuronidase modified with sPEG (conjugate, UniProt P05804 1-603, looked up, sPEG modified) Beta-glucuronidase: MLRPVETPTREIKKLDGLWAFSLDRENCGIDQRWWESALQESRAIAVPGSFNDQFADADIRNYAGNVWYQREVFIPKGWAGQRIVLRFDAVTHYGKVWVNNQEVMEHQGGYTPFEADVTPYVIAGKSVRITVCVNNELNWQTIPPGMVITDENGKKKQSYFHDFFNYAGIHRSVMLYTTPNTWVDDITVVTHVAQDCNHASVDWQVVANGDVSVELRDADQQVVATGQGTSGTLQVVNPHLWQPGEGYLYELCVTAKSQTECDIYPLRVGIRSVAVKGEQFLINHKPFYFTGFGRHEDADLRGKGFDNVLMVHDHALMDWIGANSYRTSHYPYAEEMLDWADEHGIVVIDETAAVGFNLSLGIGFEAGNKPKELYSEEAVNGETQQAHLQAIKELIARDKNHPSVVMWSIANEPDTRPQGAREYFAPLAEATRKLDPTRPITCVNVMFCDAHTDTISDLFDVLCLNRYYGWYVQSGDLETAEKVLEKELLAWQEKLHQPIIITEYGVDTLAGLHSMYTDMWSEEYQCAWLDMYHRVFDRVSAVVGEQVWNFADFATSQGILRVGGNKKGIFTRDRKPKSAAFLLQKRWTGMNFGEKPQQGGKQ",original enzymatic activity possessed,[1],69%
"βG-pPEG: β-glucuronidase modified with pPEG (conjugate, UniProt P05804 1-603, looked up, pPEG modified) Beta-glucuronidase: MLRPVETPTREIKKLDGLWAFSLDRENCGIDQRWWESALQESRAIAVPGSFNDQFADADIRNYAGNVWYQREVFIPKGWAGQRIVLRFDAVTHYGKVWVNNQEVMEHQGGYTPFEADVTPYVIAGKSVRITVCVNNELNWQTIPPGMVITDENGKKKQSYFHDFFNYAGIHRSVMLYTTPNTWVDDITVVTHVAQDCNHASVDWQVVANGDVSVELRDADQQVVATGQGTSGTLQVVNPHLWQPGEGYLYELCVTAKSQTECDIYPLRVGIRSVAVKGEQFLINHKPFYFTGFGRHEDADLRGKGFDNVLMVHDHALMDWIGANSYRTSHYPYAEEMLDWADEHGIVVIDETAAVGFNLSLGIGFEAGNKPKELYSEEAVNGETQQAHLQAIKELIARDKNHPSVVMWSIANEPDTRPQGAREYFAPLAEATRKLDPTRPITCVNVMFCDAHTDTISDLFDVLCLNRYYGWYVQSGDLETAEKVLEKELLAWQEKLHQPIIITEYGVDTLAGLHSMYTDMWSEEYQCAWLDMYHRVFDRVSAVVGEQVWNFADFATSQGILRVGGNKKGIFTRDRKPKSAAFLLQKRWTGMNFGEKPQQGGKQ",first-order half-life of elimination from the circulation,[2],19.2 h
"Eschericia coli β-glucuronidase (protein, UniProt P05804 1-603, looked up, recombinant Eschericia coli-derived β-glucuronidase) Beta-glucuronidase: MLRPVETPTREIKKLDGLWAFSLDRENCGIDQRWWESALQESRAIAVPGSFNDQFADADIRNYAGNVWYQREVFIPKGWAGQRIVLRFDAVTHYGKVWVNNQEVMEHQGGYTPFEADVTPYVIAGKSVRITVCVNNELNWQTIPPGMVITDENGKKKQSYFHDFFNYAGIHRSVMLYTTPNTWVDDITVVTHVAQDCNHASVDWQVVANGDVSVELRDADQQVVATGQGTSGTLQVVNPHLWQPGEGYLYELCVTAKSQTECDIYPLRVGIRSVAVKGEQFLINHKPFYFTGFGRHEDADLRGKGFDNVLMVHDHALMDWIGANSYRTSHYPYAEEMLDWADEHGIVVIDETAAVGFNLSLGIGFEAGNKPKELYSEEAVNGETQQAHLQAIKELIARDKNHPSVVMWSIANEPDTRPQGAREYFAPLAEATRKLDPTRPITCVNVMFCDAHTDTISDLFDVLCLNRYYGWYVQSGDLETAEKVLEKELLAWQEKLHQPIIITEYGVDTLAGLHSMYTDMWSEEYQCAWLDMYHRVFDRVSAVVGEQVWNFADFATSQGILRVGGNKKGIFTRDRKPKSAAFLLQKRWTGMNFGEKPQQGGKQ",signal in AGP3 sandwich ELISA,immobilized AGP3,lack of signal
same,pH stability of enzymatic activity,[3],irreversibly deactivated
